Measured values from PMC9482650, “Quantitative fragmentomics allow affinity mapping of interactomes” (Nature Communications, 2022).

Experiments:
Experiment in all cases: holdup assay
Set-up in all cases: key: below the threshold = too weak to quantify, mostly under pKd 3.1 to 4
[1] = biological target: LDB3, O75112
[2] = biological target: TJP2_1, Q9UDY2
[3] = biological target: Inadl_6, Q8NI35
[4] = biological target: Inadl_4, Q8NI35
[5] = biological target: DLG4_1, P78352
[6] = biological target: FRMPD4, Q14CM0
Sequence of FRMPD4, Q14CM0 (Q14CM0 67-160): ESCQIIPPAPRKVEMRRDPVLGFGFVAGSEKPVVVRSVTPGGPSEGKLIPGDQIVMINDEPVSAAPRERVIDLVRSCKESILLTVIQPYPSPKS

[7] = biological target: Inadl_5, Q8NI35
Sequence of Inadl_5, Q8NI35 (Q8NI35 673-780): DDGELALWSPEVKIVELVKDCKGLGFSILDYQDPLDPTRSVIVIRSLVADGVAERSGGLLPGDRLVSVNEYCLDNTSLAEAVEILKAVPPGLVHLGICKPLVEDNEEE

[8] = biological target: MAGI1_1, Q96QZ7
Sequence of MAGI1_1, Q96QZ7 (Q96QZ7 1-106): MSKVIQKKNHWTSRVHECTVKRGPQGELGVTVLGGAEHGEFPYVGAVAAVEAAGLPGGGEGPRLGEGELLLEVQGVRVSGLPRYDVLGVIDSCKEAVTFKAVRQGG

[9] = biological target: MAGI2_6, Q86UL8
Sequence of MAGI2_6, Q86UL8 (Q86UL8 1141-1229): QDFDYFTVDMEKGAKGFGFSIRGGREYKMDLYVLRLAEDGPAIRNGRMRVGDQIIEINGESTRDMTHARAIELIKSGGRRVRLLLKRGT

[10] = biological target: T1, GRIP1_5, Q9Y3R0
T1 sequence (Q9Y3R0 568-668, limits assumed, looked up): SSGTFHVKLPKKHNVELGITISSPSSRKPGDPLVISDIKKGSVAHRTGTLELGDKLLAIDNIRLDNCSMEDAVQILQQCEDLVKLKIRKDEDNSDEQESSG

[11] = biological target: FRMPD2_3, Q68DX3
Sequence of FRMPD2_3, Q68DX3 (Q68DX3 1073-1166): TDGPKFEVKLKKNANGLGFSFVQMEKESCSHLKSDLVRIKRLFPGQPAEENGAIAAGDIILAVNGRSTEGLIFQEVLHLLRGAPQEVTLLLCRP

[12] = biological target: GRIP2_5, Q9C0E4
Sequence of GRIP2_5, Q9C0E4 (Q9C0E4 544-642): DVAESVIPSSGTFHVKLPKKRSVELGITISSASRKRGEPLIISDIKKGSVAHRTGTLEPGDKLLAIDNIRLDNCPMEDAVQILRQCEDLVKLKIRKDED

[13] = biological target: MAGI1_2, Q96QZ7
Sequence of MAGI1_2, Q96QZ7 (Q96QZ7 456-580): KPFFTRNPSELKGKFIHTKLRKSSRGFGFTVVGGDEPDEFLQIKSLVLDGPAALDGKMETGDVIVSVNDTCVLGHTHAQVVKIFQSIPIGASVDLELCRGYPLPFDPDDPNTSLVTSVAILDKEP

[14] = biological target: T2, APBA2_1, Q99767
T2 sequence (Q99767 563-664, limits assumed, looked up): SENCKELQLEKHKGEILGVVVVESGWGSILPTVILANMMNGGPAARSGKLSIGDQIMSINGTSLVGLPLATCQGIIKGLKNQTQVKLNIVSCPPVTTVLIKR

[15] = biological target: MAGI2_4, Q86UL8
Sequence of MAGI2_4, Q86UL8 (Q86UL8 772-865): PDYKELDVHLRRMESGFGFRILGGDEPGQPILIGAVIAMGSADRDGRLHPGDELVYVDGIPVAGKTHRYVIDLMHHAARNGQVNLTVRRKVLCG

[16] = biological target: T3, DVL3, Q92997
T3 sequence (Q92997 244-331, limits assumed, looked up): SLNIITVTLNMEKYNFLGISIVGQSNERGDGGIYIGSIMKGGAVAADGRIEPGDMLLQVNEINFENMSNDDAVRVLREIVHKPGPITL

[17] = biological target: T4, LNX2_2, Q8N448
T4 sequence (Q8N448 334-432, limits assumed, looked up): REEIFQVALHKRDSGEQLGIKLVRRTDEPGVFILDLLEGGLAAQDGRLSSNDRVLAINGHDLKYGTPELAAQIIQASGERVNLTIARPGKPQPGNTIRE

[18] = biological target: T5, ARHGEF11, O15085
T5 sequence (O15085 42-136, limits assumed, looked up): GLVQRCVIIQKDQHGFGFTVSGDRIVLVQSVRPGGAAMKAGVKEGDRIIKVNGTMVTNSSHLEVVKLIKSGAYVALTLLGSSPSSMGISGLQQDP

[19] = biological target: T6, HTRA4, P83105
T6 sequence (P83105 378-476, limits assumed, looked up): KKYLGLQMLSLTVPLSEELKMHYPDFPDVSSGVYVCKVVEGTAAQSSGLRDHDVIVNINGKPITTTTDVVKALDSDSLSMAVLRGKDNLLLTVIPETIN

[20] = biological target: DLG1_1, Q12959
[21] = biological target: T7, RHPN1, Q8TCX5
T7 sequence (Q8TCX5 508-602, limits assumed, looked up): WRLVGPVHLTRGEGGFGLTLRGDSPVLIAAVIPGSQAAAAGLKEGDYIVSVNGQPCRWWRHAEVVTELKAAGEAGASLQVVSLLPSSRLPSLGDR

[22] = biological target: T8, GRIP1_3, Q9Y3R0
T8 sequence (Q9Y3R0 247-346, limits assumed, looked up): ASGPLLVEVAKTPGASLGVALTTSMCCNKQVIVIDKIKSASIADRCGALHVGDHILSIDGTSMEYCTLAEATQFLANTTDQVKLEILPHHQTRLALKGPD

[23] = biological target: T9, NHERF3_1, Q5T2W1
T9 sequence (Q5T2W1 4-100, limits assumed, looked up): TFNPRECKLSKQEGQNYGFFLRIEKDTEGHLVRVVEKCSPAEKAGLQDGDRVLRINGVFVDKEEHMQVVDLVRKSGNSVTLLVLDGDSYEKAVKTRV

[24] = biological target: Inadl_2, Q8NI35
Sequence of Inadl_2, Q8NI35 (Q8NI35 238-335): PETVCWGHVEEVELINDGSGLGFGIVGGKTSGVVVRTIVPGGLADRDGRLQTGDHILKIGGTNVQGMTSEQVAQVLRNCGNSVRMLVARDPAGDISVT

[25] = biological target: PDZRN4_1, Q6ZMN7
Sequence of PDZRN4_1, Q6ZMN7 (Q6ZMN7 213-318): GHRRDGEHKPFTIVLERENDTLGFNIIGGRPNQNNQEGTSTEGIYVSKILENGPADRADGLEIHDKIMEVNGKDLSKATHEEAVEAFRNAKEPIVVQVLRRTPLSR

[26] = biological target: T10, DLG3_1, Q92796
T10 sequence (Q92796 125-227, limits assumed, looked up): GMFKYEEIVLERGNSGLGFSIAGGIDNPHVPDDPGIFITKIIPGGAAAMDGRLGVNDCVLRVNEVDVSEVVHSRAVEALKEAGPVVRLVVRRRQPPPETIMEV

[27] = biological target: T11, SNTG1, Q9NSN8
T11 sequence (Q9NSN8 52-150, limits assumed, looked up): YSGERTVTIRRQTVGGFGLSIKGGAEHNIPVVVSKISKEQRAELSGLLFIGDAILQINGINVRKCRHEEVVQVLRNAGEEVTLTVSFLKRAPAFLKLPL

[28] = plain residues with an end cap or a label only (N-terminal biotin on a linker: ahx)
[29] = plain residues with an end cap or a label only (N-terminal biotin on a linker: ttds)
[30] = plain residues with an end cap or a label only (N-terminal biotin on a linker: ado-ado)

Sequence of Inadl_6, Q8NI35 (Q8NI35 1058-1167): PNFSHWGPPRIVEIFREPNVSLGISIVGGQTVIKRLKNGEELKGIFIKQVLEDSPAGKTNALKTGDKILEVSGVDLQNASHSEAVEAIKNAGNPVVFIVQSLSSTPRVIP
Sequence of DLG4_1, P78352 (P78352 62-152): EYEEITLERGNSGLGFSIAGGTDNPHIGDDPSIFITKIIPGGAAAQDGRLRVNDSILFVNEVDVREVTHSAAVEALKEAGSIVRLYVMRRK
Sequence of TJP2_1, Q9UDY2 (Q9UDY2 24-128): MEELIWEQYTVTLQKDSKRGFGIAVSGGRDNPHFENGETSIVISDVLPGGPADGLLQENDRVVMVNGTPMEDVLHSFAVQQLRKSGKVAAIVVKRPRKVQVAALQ
Sequence of Inadl_4, Q8NI35 (Q8NI35 547-651): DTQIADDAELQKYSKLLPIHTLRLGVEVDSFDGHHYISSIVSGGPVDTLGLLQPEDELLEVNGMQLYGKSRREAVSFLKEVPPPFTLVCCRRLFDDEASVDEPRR
Sequence of LDB3, O75112 (O75112 1-94): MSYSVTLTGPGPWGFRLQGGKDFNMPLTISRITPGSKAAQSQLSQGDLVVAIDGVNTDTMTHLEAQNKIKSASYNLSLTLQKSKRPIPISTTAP

In the case of HSGSYLVTSV [APC, P25054], the pKd [1, 28] is reported as “below the threshold”, the pKd [2, 28] is reported as “below the threshold” and the pKd [3, 28] is reported as 3.81. The pKd [4, 28] was “below the threshold”, the pKd [5, 28] was 4.38 and the pKd [6, 28] was “below the threshold”. The pKd [7, 28] was “below the threshold”, the pKd [8, 28] was “below the threshold” and the pKd [9, 28] was 4.85. For the same binder, the pKd [10, 28] was “below the threshold”, the pKd [11, 28] was “below the threshold” and the pKd [12, 28] was “below the threshold”. The pKd [13, 28] was 4.05, the pKd [14, 28] was “below the threshold” and the pKd [15, 28] was 4.17. For the same binder, the pKd [16, 28] was “below the threshold”, the pKd [17, 28] was 4.56 and the pKd [18, 28] was 4.59. For the same binder, the pKd [19, 28] was 4.51, the pKd [20, 28] was 4.6 and the pKd [21, 28] was 5.16. The pKd [22, 28] was “below the threshold”, the pKd [23, 28] was “below the threshold” and the pKd [24, 28] was “below the threshold”. The pKd [25, 28] was “below the threshold”, the pKd [26, 28] was 3.82 and the pKd [27, 28] was 4.23.

With TGDTLEKFVEGL [CBP, Q92793] the pKd [1, 29] was “below the threshold”, the pKd [2, 29] was “below the threshold” and the pKd [3, 29] was “below the threshold”. The pKd [4, 29] was “below the threshold”, the pKd [5, 29] was 3.54 and the pKd [6, 29] was “below the threshold”. For the same binder, the pKd [7, 29] was “below the threshold”, the pKd [8, 29] was “below the threshold” and the pKd [9, 29] was “below the threshold”. For the same binder, the pKd [10, 29] was “below the threshold”, the pKd [11, 29] was “below the threshold” and the pKd [12, 29] was “below the threshold”. For the same binder, the pKd [13, 29] was “below the threshold”, the pKd [14, 29] was “below the threshold” and the pKd [15, 29] was “below the threshold”. The pKd [16, 29] was “below the threshold”, the pKd [17, 29] was “below the threshold” and the pKd [18, 29] was “below the threshold”. For the same binder, the pKd [19, 29] was “below the threshold”, the pKd [20, 29] was “below the threshold” and the pKd [21, 29] was “below the threshold”. For the same binder, the pKd [22, 29] was “below the threshold”, the pKd [23, 29] was “below the threshold” and the pKd [24, 29] was “below the threshold”. For the same binder, the pKd [25, 29] was “below the threshold”, the pKd [26, 29] was “below the threshold” and the pKd [27, 29] was “below the threshold”.

With QKNKDKEYYV [NRXN3_rs746444206, Q9Y4C0] the pKd [1, 30] was “below the threshold”, the pKd [2, 30] was “below the threshold” and the pKd [3, 30] was “below the threshold”. For the same binder, the pKd [4, 30] was “below the threshold”, the pKd [5, 30] was “below the threshold” and the pKd [6, 30] was 4.18. For the same binder, the pKd [7, 30] was 4.55, the pKd [8, 30] was “below the threshold” and the pKd [9, 30] was “below the threshold”. For the same binder, the pKd [10, 30] was “below the threshold”, the pKd [11, 30] was 4.23 and the pKd [12, 30] was “below the threshold”. For the same binder, the pKd [13, 30] was “below the threshold”, the pKd [14, 30] was “below the threshold” and the pKd [15, 30] was 3.54. For the same binder, the pKd [16, 30] was 3.85, the pKd [17, 30] was 4.7 and the pKd [18, 30] was 3.95. For the same binder, the pKd [19, 30] was “below the threshold”, the pKd [20, 30] was “below the threshold” and the pKd [21, 30] was “below the threshold”. For the same binder, the pKd [22, 30] was “below the threshold”, the pKd [23, 30] was 4.43 and the pKd [24, 30] was 4.92. For the same binder, the pKd [25, 30] was “below the threshold”, the pKd [26, 30] was “below the threshold” and the pKd [27, 30] was 3.53.

In the case of RGGFGRQTQI [NCBP2L, A6PVI3], the pKd [1, 30] is reported as 3.66, the pKd [2, 30] is reported as 3.88 and the pKd [3, 30] is reported as “below the threshold”. The pKd [4, 30] was “below the threshold”, the pKd [5, 30] was 4.25 and the pKd [6, 30] was “below the threshold”. For the same binder, the pKd [7, 30] was “below the threshold”, the pKd [8, 30] was “below the threshold” and the pKd [9, 30] was 3.78. For the same binder, the pKd [10, 30] was “below the threshold”, the pKd [11, 30] was “below the threshold” and the pKd [12, 30] was “below the threshold”. For the same binder, the pKd [13, 30] was 3.98, the pKd [14, 30] was “below the threshold” and the pKd [15, 30] was “below the threshold”. For the same binder, the pKd [16, 30] was “below the threshold”, the pKd [17, 30] was “below the threshold” and the pKd [18, 30] was “below the threshold”. For the same binder, the pKd [19, 30] was “below the threshold”, the pKd [20, 30] was 4.39 and the pKd [21, 30] was 4.5. The pKd [22, 30] was “below the threshold”, the pKd [23, 30] was 4.54 and the pKd [24, 30] was “below the threshold”. For the same binder, the pKd [25, 30] was “below the threshold”, the pKd [26, 30] was 3.58 and the pKd [27, 30] was “below the threshold”.
